Assay results reported in US20220332804A1 (CSL INNOVATION, published 2022).
Substitutions are numbered along the chain they refer to.

T1: cynomolgus monkey C2 (cynomolgus monkey, UniProt G8F3W0 21-752)
T1 sequence: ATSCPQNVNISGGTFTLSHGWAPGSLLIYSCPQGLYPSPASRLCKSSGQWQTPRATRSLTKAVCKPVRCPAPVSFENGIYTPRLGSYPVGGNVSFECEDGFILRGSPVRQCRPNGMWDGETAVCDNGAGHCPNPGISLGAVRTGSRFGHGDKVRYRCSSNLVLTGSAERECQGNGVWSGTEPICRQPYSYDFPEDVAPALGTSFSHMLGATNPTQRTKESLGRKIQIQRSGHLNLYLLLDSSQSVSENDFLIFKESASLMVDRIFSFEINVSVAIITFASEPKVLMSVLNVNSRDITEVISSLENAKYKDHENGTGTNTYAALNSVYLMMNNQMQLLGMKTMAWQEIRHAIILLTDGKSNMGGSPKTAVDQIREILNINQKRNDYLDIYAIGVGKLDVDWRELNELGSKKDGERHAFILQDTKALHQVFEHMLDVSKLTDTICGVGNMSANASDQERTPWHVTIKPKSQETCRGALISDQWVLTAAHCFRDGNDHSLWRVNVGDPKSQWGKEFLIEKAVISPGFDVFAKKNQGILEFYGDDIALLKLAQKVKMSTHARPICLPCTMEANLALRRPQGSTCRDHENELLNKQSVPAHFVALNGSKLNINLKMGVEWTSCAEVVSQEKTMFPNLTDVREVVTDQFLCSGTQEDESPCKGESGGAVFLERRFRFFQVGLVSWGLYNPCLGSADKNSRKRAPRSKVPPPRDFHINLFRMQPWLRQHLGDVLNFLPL

T2: human C2 D454A (human, UniProt P06681 21-752)
T2 sequence: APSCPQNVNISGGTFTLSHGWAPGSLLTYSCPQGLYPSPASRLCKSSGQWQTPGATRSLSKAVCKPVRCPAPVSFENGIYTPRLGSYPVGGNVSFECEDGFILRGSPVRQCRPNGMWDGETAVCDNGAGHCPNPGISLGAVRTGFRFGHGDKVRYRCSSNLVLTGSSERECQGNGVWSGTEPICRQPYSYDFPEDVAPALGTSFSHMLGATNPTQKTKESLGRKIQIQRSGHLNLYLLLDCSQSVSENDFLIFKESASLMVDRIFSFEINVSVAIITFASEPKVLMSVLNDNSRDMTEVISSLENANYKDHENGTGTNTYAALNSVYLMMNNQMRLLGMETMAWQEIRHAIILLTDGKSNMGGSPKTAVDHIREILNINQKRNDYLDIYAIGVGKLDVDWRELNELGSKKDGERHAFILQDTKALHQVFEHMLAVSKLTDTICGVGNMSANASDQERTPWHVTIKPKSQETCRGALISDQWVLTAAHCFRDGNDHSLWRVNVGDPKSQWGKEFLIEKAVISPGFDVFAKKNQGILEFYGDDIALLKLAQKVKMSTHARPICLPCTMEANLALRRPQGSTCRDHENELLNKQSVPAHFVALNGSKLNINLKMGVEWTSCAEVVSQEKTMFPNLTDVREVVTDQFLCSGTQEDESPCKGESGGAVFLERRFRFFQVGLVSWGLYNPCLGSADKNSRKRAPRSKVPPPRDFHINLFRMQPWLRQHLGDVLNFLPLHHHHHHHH

T3: human C2 K715A (human, UniProt P06681 21-752)
T3 sequence: T2 sequence with A434D, K695A

T4: human C2 D282A (human, UniProt P06681 21-752)
T4 sequence: T2 sequence with D262A, A434D

B1: RF16-214 (antibody, V domains shown)
VH: EVQLLESGGGLVQPGGSLRLSCAASGFTFSWYQMMWVRQAPGKGLEWVSRIYPSGGGTAYADSVKGRFTISRDNSKNTLYLQMNSLRAEDTAVYYCARDAGYGDNWGQGTLVTVSS
VL: QSALTQPPSVSVSPGQTASITCSGDKLGEKYASWYQQKAGQSPVMVIYQDRKRPSGIPERFSGSNSGNTATLTISGTQAMDEADYYCQAWDTRAVVFGGGTKLTVLG
B2: RF16-226 (antibody)
heavy: not shown
light: SYELTQPPSVSVSPGQTARITCSGDALTSKYVAWYQQKSGLAPLLVIYEDTRRPSGIPAKFSGSSSGSVATLTISGAHGDDEADYYCYSTDASGHQRVFGGGTKLTVLSQPKAAPSVTLFPPSSEELQANKATLVCLISDFYPGAVTVAWKADGSPVKAGVETTKPSKQSNNKYAASSYLSLTPEQWKSHRSYSCQVTHEGSTVEKTVAPTECS
B3: RF16-226 (antibody, human IgG4 S228P, lambda)
heavy: not shown
light: B2 light
notes: pH-dependent anti-C2 antibody from a phage display library; also called WT

Columns and labels:
cynomolgus monkey C2 = molecular target: T1, cynomolgus monkey C2; assay: cell-based or functional assay
human C2 D454A = molecular target: T2, human C2 D454A; assay: SPR, KD relative to WT C2;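 further: biacore SPR at 37 °C, anti-C2 mAbs captured via immobilised goat anti-human IgG, C2 alanine or serine surface mutants as analytes, 1:1 model fitted, double-referenced sensograms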
human C2 K715A = molecular target: T3, human C2 K715A; assay: SPR, KD relative to WT C2;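 further: biacore SPR at 37 °C, anti-C2 mAbs captured via immobilised goat anti-human IgG, C2 alanine or serine surface mutants as analytes, 1:1 model fitted, double-referenced sensograms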
human C2 D282A = molecular target: T4, human C2 D282A; assay: SPR, KD relative to WT C2;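 further: biacore SPR at 37 °C, anti-C2 mAbs captured via immobilised goat anti-human IgG, C2 alanine or serine surface mutants as analytes, 1:1 model fitted, double-referenced sensograms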

Binder	IC50, inhibition of cynomolgus classical complement pathway (Wieslab assay) (cynomolgus monkey C2) [nM]	IC50, inhibition of cynomolgus lectin complement pathway (Wieslab assay) (cynomolgus monkey C2) [nM]	Fold diff (human C2 D454A) [fold]	Fold diff (human C2 K715A) [fold]	Fold diff (human C2 D282A) [fold]
B1	134	362	–	–	–
B2	18.8	140	–	–	–
B3	–	–	25	2	1
